Experiment [1] concerns the target human interleukin 21 receptor (IL-21R) (human) (UniProt Q9HBE5). Description: AlphaSeq yeast mating assay, pH 5 media.
The target is the same in experiment [2]. Put plainly: AlphaSeq yeast mating assay, pH 7 media.
The target is the same in experiment [3]. Description: AlphaSeq yeast mating assay, unbuffered media.
The target of experiment [4] is wild-type human IL-21R (human) (UniProt Q9HBE5). Description: AlphaSeq yeast mating assay, pH 5 media.
Experiment [5] has the same target. Put plainly: AlphaSeq yeast mating assay, pH 6 media.
The target is the same in experiment [6]. Put plainly: AlphaSeq yeast mating assay, pH 7 media.
Experiment [7] shares this target. Put plainly: AlphaSeq yeast mating assay, unbuffered media.
The target of experiment [8] is human interleukin 21 receptor (IL-21R) (human) (UniProt Q9HBE5). Description: AlphaSeq yeast mating assay, pH 6 media.
In experiment [9] the target is mouse IL-21R on T cells of mouse splenocytes (mouse) (UniProt Q9JHX3). Put plainly: cell-based or functional assay.
For experiment [10], the target named is mouse IL-21R, His-tagged (BLI antigen) (mouse) (UniProt Q9JHX3). Description: BLI. On the technique in general: Biolayer interferometry detects binding as a change in optical thickness at a sensor tip.
Experiment [11] addresses recombinant human IL-21R His tag (Acro Biosystems) (human) (UniProt Q9HBE5). Description: BLI.
Experiment [12] deals with human IL-21R on T cells of primary human PBMCs (human) (UniProt Q9HBE5). Description: cell-based or functional assay.

We go through 48 substances from patent US12281147.

pKd: −log10 of the molar value.

On to “IL-21_H35P (from UniProt Q9HBE4 32-152) (ligand)”, for which the pKd in experiment [1] was 7.39; in experiment [2], 7.23; in experiment [3], 6.25.

Consider “IL-21_H118I (from UniProt Q9HBE4 32-152) (ligand)”, for which the pKd in experiment [1] was 6.44; in [3], 6.82.

Turning to “IL-21_K85S (from UniProt Q9HBE4 32-152) (ligand)”, in experiment [1], the pKd was 6.82.

Turning to “IL-21_K106E (from UniProt Q9HBE4 32-152) (ligand)”, the pKd in [2] was 6.26; in experiment [3] it was 6.92.

In the case of “IL-21_K106T (from UniProt Q9HBE4 32-152) (ligand)”, the pKd is 6.70 in experiment [1] and 6.68 in experiment [3].

Turning to “IL-21_K131V (from UniProt Q9HBE4 32-152) (ligand)”, in experiment [1], the pKd was 7.59.

In the case of “IL-21_L56M (from UniProt Q9HBE4 32-152) (ligand)”, the pKd in experiment [4] is 6.46; in [5], 7.35; in [6] it was 7.08; in experiment [7] it was 5.17.

For the substance “IL-21_L120Y (from UniProt Q9HBE4 32-152) (ligand)”, the pKd in experiment [2] was 7.24.

In the case of “IL-21_N51E (from UniProt Q9HBE4 32-152) (ligand)”, the negative logarithm of the Kd (pKd) is 7.70 in [1], 7.96 in experiment [8], 6.85 in experiment [2] and 6.60 in experiment [3].

Take “IL-21_N54P (from UniProt Q9HBE4 32-152) (ligand)”: the negative logarithm of the Kd (pKd) in [4] is 7.05; in [5], 7.70; in [6], 7.57; in [7] it was 5.27.

In the case of “IL-21_N97G (from UniProt Q9HBE4 32-152) (ligand)”, the pKd was 7.11 in experiment [4], 7.62 in experiment [5], 7.32 in experiment [6] and 5.12 in [7].

Regarding “IL-21_P62H (from UniProt Q9HBE4 32-152) (ligand)”, the pKd is 6.80 in experiment [4], 7.68 in experiment [5], 6.96 in experiment [6] and 5.29 in [7].

For the substance “IL-21_P107D (from UniProt Q9HBE4 32-152) (ligand)”, the pKd in experiment [1] was 7.22; in experiment [3] it was 6.72.

For “IL-21_P108L (from UniProt Q9HBE4 32-152) (ligand)”, the pKd in [4] was 6.44; in [5], 7.46; in experiment [6] it was 7.00; in experiment [7] it was 5.09.

As to “IL-21_Q41S (from UniProt Q9HBE4 32-152) (ligand)”, the pKd is 6.85 in experiment [4], 7.59 in experiment [5], 7.60 in [6] and 5.52 in experiment [7].

For the substance “IL-21_Q48G (from UniProt Q9HBE4 32-152) (ligand)”, the pKd is 7.23 in experiment [4], 7.80 in experiment [5], 7.41 in experiment [6] and 5.49 in [7].

Consider “IL-21_R34L (from UniProt Q9HBE4 32-152) (ligand)”, for which the results for the pKd in experiment [1], in experiment [2] and in [3] were 7.00, 7.11 and 6.48, respectively.

In the case of “IL-21_R34M (from UniProt Q9HBE4 32-152) (ligand)”, the pKd in experiment [1] was 6.82; in [3], 6.41.

As to “IL-21_R34T (from UniProt Q9HBE4 32-152) (ligand)”, the pKd was 7.59 in experiment [8], 6.85 in experiment [2] and 6.46 in experiment [3].

For “IL-21_R94S (from UniProt Q9HBE4 32-152) (ligand)”, the pKd was 6.85 in experiment [1], 7.57 in experiment [8] and 7.46 in experiment [2].

Take “IL-21_R94T (from UniProt Q9HBE4 32-152) (ligand)”: the negative-log Kd (pKd) in experiment [1] is 6.68; in [8], 7.57; in experiment [2], 7.10.

“IL-21_R114F (from UniProt Q9HBE4 32-152) (ligand)”: the pKd in experiment [1] was 6.85; in [8] it was 7.32; in [2] it was 7.24; in experiment [3] it was 6.35.

With “IL-21_R115I (from UniProt Q9HBE4 32-152) (ligand)”, the pKd in [1] is 6.85; in [8], 7.46; in experiment [2], 7.30; in experiment [3], 6.59.

Regarding “IL-21_R115P (from UniProt Q9HBE4 32-152) (ligand)”, the pKd was 7.82 in [8], 7.24 in experiment [2] and 7.26 in experiment [3].

Regarding “IL-21_R115Q (from UniProt Q9HBE4 32-152) (ligand)”, the negative-log Kd (pKd) in experiment [8] is 7.96; in experiment [2], 7.25.

For the substance “IL-21_S77M (from UniProt Q9HBE4 32-152) (ligand)”, the negative-log Kd (pKd) in [1] was 7.40; in experiment [8] it was 7.82; in experiment [2] it was 7.22.

In turn, “IL-21_S142D (from UniProt Q9HBE4 32-152) (ligand)” showed a negative logarithm of the Kd (pKd) in [3] of 6.35.

The substance “IL-21_human_D33P Fc fusion protein (from UniProt Q9HBE4 30-162)” yielded a Mouse T cell EC50 (pM), pSTAT3 phosflow in experiment [9] of 1800 pM. Also, the pKd in [10] was 7.70.

As for “IL-21_human_D33T Fc fusion protein (from UniProt Q9HBE4 30-162)”, the negative-log Kd (pKd) in experiment [10] was 7.43; in experiment [11], 7.83.

In [10], “IL-21_human_E72L Fc fusion protein (from UniProt Q9HBE4 30-162)” had a pKd of 7.91.

Regarding “IL-21_human_E72S Fc fusion protein (from UniProt Q9HBE4 30-162)”, in [12], the Human T cell EC50 (pM), pSTAT3 phosflow was found to be 31 pM. The substance also displayed a Mouse T cell EC50 (pM), pSTAT3 phosflow in [9] of 47000 pM. The substance further had a pKd in [10] of 8.11.

In experiment [10], “IL-21_human_I37G Fc fusion protein (from UniProt Q9HBE4 30-162)” had a pKd of 6.80.

“IL-21_human_I37R Fc fusion protein (from UniProt Q9HBE4 30-162)”: in [10], the pKd was 7.45.

Take “IL-21_human_I37V Fc fusion protein (from UniProt Q9HBE4 30-162)”: the values for the pKd in [10] and in experiment [11] were 8.28 and 8.52, respectively.

As to “IL-21_human_I43M Fc fusion protein (from UniProt Q9HBE4 30-162)”, the pKd in experiment [10] is 8.04; in experiment [11] it was 8.15.

As for “IL-21_human_I45A Fc fusion protein (from UniProt Q9HBE4 30-162)”, the pKd in experiment [10] was 7.90; in experiment [11], 8.71.

In the case of “IL-21_human_I45H Fc fusion protein (from UniProt Q9HBE4 30-162)”, the pKd is 6.91 in [10] and 7.54 in experiment [11].

For “IL-21_human_I95H Fc fusion protein (from UniProt Q9HBE4 30-162)”, the figures for the pKd in experiment [10] and in experiment [11] were 6.07 and 7.80, respectively.

Consider “IL-21_human_I148S Fc fusion protein (from UniProt Q9HBE4 30-162)”, for which the results for the pKd in experiment [10] and in [11] were 8.19 and 8.61, respectively.

Consider “IL-21_human_K106S Fc fusion protein (from UniProt Q9HBE4 30-162)”, for which the pKd in [10] is 7.62; in experiment [11] it was 8.24.

Take “IL-21_human_P108L Fc fusion protein (from UniProt Q9HBE4 30-162)”: in experiment [9], the Mouse T cell EC50 (pM), pSTAT3 phosflow was 71000 pM. Moreover, the pKd in experiment [10] is 7.93; in experiment [11] it was 8.49.

In [12], “IL-21_human_R34S Fc fusion protein (from UniProt Q9HBE4 30-162)” gave a Human T cell EC50 (pM), pSTAT3 phosflow of 5.6 pM. In [9], this substance displayed a Mouse T cell EC50 (pM), pSTAT3 phosflow of 8500 pM. For the same substance, the pKd in [10] is 7.54; in experiment [11], 7.50.

Turning to “IL-21_human_R38M Fc fusion protein (from UniProt Q9HBE4 30-162)”, the results for the pKd in [10] and in experiment [11] were 6.72 and 7.06, respectively.

“IL-21_human_R38Q Fc fusion protein (from UniProt Q9HBE4 30-162)”: the negative-log Kd (pKd) in experiment [10] is 6.61; in experiment [11], 7.05.

As for “IL-21_human_R105K Fc fusion protein (from UniProt Q9HBE4 30-162)”, the pKd in [10] was 7.38; in [11], 7.78.

“IL-21_human_S74H Fc fusion protein (from UniProt Q9HBE4 30-162)” showed a Human T cell EC50 (pM), pSTAT3 phosflow in experiment [12] of 3.6 pM. The substance also showed a Mouse T cell EC50 (pM), pSTAT3 phosflow in experiment [9] of 1900 pM. For the same substance, in experiment [11], the pKd is 7.91.

For the substance “IL-21_human_W73L Fc fusion protein (from UniProt Q9HBE4 30-162)”, in experiment [9], the Mouse T cell EC50 (pM), pSTAT3 phosflow was determined as 6900 pM. The pKd is 7.70 in experiment [10] and 7.64 in experiment [11].

In the case of “IL-21_human_Y52Q Fc fusion protein (from UniProt Q9HBE4 30-162)”, the Human T cell EC50 (pM), pSTAT3 phosflow in experiment [12] is 8.7 pM. The substance also had a Mouse T cell EC50 (pM), pSTAT3 phosflow in experiment [9] of 9200 pM. Besides, the figures for the pKd in experiment [10] and in experiment [11] were 7.71 and 7.84, respectively.

The term pKd denotes −log10 of the Kd, conventionally taken in molar units.
